Assay [1] concerns the target PniDAH7PS, the C-terminal CM-linked 3-deoxy-D-arabino-heptulosonate 7-phosphate synthase (DAH7PS) from Prevotella nigrescens, wild type (Prevotella nigrescens). Briefly: SEC-SAXS. In general terms: Size exclusion chromatography separates by hydrodynamic size, large species first.
In assay [2] the target is PniDAH7PS^Δ5AA, a truncated PniDAH7PS variant with removal of C327-T331 residues (Prevotella nigrescens). Briefly: SEC-SAXS.

In general, stoichiometry N refers to the number of molecules, sites or subunits per partner or assembly. For the substance “PniDAH7PS, the C-terminal CM-linked 3-deoxy-D-arabino-heptulosonate 7-phosphate synthase (DAH7PS) from Prevotella nigrescens, wild type (enzyme)”, the stoichiometry N in assay [1] is 2.
“PniDAH7PS^Δ5AA, a truncated PniDAH7PS variant with removal of C327-T331 residues (enzyme)”: in assay [2], the stoichiometry N was found to be 2.
